Data from patent US20220402985A1.
Positions count from the first letter of the chain named. Several values for one entry are separate records, joined by “and”; a condition that tells them apart may be missing. Identical values can stand only once. One block for each molecule: values may come before it.

Experiments:
[1] = molecular target: ErbB4 on neonatal rat cardiomyocytes (rat) (UniProt Q62956); test: cell-based or functional assay
[2] = molecular target: ErbB3 on rat Schwann cells (rat) (UniProt Q62799); test: cell-based or functional assay
Sequence of ErbB3 on rat Schwann cells (rat) (Q62799 20-1339): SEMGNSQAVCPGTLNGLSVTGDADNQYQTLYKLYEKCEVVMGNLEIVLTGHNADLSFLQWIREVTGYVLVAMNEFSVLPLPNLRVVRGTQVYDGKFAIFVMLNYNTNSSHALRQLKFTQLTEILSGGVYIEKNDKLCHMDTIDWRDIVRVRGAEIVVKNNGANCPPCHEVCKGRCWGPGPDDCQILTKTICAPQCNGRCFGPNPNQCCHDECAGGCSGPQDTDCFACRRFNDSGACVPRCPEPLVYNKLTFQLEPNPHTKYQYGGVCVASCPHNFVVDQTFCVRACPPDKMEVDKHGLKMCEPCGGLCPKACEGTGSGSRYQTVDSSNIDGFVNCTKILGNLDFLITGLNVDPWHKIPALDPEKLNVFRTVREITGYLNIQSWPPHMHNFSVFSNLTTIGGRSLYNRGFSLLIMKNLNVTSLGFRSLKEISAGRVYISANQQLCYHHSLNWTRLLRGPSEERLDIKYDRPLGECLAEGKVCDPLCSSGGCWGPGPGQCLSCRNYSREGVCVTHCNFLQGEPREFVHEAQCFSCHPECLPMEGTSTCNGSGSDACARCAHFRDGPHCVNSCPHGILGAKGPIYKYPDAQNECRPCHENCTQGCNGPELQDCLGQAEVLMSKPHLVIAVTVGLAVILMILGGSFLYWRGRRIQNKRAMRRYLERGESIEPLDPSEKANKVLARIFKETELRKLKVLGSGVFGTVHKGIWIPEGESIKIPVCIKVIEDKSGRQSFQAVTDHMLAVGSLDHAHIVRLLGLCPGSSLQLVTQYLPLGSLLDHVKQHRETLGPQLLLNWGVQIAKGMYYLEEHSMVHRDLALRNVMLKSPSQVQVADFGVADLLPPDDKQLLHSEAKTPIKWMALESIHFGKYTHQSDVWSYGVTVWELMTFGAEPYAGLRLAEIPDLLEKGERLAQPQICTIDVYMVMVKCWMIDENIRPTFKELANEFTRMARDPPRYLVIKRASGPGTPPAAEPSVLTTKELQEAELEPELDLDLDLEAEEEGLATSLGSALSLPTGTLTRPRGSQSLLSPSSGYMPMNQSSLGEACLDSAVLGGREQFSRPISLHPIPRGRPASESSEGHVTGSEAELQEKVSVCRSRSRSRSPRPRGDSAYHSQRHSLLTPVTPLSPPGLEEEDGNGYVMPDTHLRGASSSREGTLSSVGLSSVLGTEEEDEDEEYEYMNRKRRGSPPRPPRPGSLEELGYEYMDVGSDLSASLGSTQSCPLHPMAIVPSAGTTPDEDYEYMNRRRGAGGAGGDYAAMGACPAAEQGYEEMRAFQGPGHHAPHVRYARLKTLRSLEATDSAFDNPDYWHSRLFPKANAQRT

Sequence of ErbB4 on neonatal rat cardiomyocytes (rat) (Q62956 26-1308): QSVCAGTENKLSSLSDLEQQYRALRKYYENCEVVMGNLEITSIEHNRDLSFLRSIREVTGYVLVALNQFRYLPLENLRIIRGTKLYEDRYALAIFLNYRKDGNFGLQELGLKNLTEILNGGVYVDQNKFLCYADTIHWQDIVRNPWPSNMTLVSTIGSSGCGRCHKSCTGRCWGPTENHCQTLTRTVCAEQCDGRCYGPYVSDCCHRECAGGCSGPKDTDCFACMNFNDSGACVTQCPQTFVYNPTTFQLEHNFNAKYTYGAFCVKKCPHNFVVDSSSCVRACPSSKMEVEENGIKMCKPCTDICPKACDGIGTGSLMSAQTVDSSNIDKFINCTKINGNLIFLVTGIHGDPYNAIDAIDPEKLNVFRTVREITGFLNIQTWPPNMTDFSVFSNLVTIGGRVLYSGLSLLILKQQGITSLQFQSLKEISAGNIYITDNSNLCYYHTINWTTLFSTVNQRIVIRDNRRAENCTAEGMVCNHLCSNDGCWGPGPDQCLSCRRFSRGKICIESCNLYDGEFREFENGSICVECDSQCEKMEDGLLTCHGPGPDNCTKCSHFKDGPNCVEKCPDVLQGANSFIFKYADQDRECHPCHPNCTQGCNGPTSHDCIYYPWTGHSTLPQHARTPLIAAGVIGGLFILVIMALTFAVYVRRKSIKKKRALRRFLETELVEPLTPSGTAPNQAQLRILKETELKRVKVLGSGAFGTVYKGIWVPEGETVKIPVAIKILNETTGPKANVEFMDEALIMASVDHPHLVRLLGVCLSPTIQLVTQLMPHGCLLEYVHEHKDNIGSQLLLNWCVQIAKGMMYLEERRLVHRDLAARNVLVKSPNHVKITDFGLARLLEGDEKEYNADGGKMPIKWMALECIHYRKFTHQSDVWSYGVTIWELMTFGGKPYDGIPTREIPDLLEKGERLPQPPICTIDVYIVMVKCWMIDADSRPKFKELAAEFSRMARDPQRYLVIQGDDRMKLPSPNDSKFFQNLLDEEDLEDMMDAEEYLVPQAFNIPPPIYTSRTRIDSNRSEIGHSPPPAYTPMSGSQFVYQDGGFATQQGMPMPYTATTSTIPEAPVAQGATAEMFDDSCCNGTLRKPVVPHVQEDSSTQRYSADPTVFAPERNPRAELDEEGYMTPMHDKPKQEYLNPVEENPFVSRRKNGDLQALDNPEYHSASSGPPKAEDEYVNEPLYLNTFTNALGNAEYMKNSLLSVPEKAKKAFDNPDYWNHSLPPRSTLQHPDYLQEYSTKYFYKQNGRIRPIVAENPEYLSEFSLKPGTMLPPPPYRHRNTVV

Cardiomyocyte (CM) (ErbB4) Avg EC50 [1]: 2.6 nM | Selectivity SC/CM [1]: 0.03 | Schwann cells (SC) (ErbB3) Avg EC50 [2]: 0.07 nM
Molecule: huNRG1(S177-S228)(wt)::3x(G4Q)::huFcSEFL2 (Pb) (from UniProt P0DOX5 300-449) (Fc fusion)

Cardiomyocyte (CM) (ErbB4) Avg EC50 [1]: 0.34 nM | Selectivity SC/CM [1]: 0.3 | Schwann cells (SC) (ErbB3) Avg EC50 [2]: 0.1 nM
Molecule: huNRG1(S177-F229)(wt)::3x(G4Q)::huFcSEFL2 (Pb) (Fc fusion)

CM % Agonism AVG [1]: 91.4% | Cardiomyocyte (CM) (ErbB4) Avg EC50 [1]: 0.31 nM | Selectivity SC/CM [1]: 0.452 | Schwann cells (SC) (ErbB3) Avg EC50 [2]: 0.14 nM
Molecule: huNRG1(S177-F229) huIgG1z SELF2 Fc (Fc fusion)

Cardiomyocyte (CM) (ErbB4) Avg EC50 [1]: 0.924 nM and 0.576 nM
B3: huNRG1(S177-Q237)(1D4)::GG::huFcSEFL2 (Pb) (Fc fusion)
chain: SHLVKCGERDKTFCVNGGECYVVEHSSNPSRYLCKCPNEFTGDRCQKFFLASFYKAEELYQGGDKTHTCPPCPAPELLGGPSVFLFPPKPKDTLMISRTPEVTCVVVDVSHEDPEVKFNWYVDGVEVHNAKTKPCEEQYGSTYRCVSVLTVLHQDWLNGKEYKCKVSNKALPAPIEKTISKAKGQPREPQVYTLPPSREEMTKNQVSLTCLVKGFYPSDIAVEWESNGQPENNYKTTPPVLDSDGSFFLYSKLTVDKSRWQQGNVFSCSVMHEALHNHYTQKSLSLSPGK

CM % Agonism AVG [1]: 88% | Cardiomyocyte (CM) (ErbB4) Avg EC50 [1]: 0.286 nM | Selectivity SC/CM [1]: > 10000 | Schwann cells (SC) (ErbB3) Avg EC50 [2]: > 10000 nM
B9: huNRG1(S177-Q237)(NRGE1H)::GG::huFcSEFL2 (Pb) (Fc fusion)
chain: SHLVKCGESHKSFCVNGGECFMIEGPSNPSRYLCKCPNEFTGDRCQNDFMASFYKAEELYQGGDKTHTCPPCPAPELLGGPSVFLFPPKPKDTLMISRTPEVTCVVVDVSHEDPEVKFNWYVDGVEVHNAKTKPCEEQYGSTYRCVSVLTVLHQDWLNGKEYKCKVSNKALPAPIEKTISKAKGQPREPQVYTLPPSREEMTKNQVSLTCLVKGFYPSDIAVEWESNGQPENNYKTTPPVLDSDGSFFLYSKLTVDKSRWQQGNVFSCSVMHEALHNHYTQKSLSLSPGK

Second part, the molecule before the results:

Molecule: huNRG1(S177-Q237)(wt)::3x(G4Q)::huFcSEFL2 (Pb) (from UniProt P0DOX5 223-449) (Fc fusion)
Cardiomyocyte (CM) (ErbB4) Avg EC50 [1]: 0.21 nM | Selectivity SC/CM [1]: 0.3 | Schwann cells (SC) (ErbB3) Avg EC50 [2]: 0.07 nM

Molecule: huNRG1(S177-S228)(wt)((G4E)2:G4)::huFcSEFL2 (Pb) (Fc fusion)
CM % Agonism AVG [1]: 92.6% | Cardiomyocyte (CM) (ErbB4) Avg EC50 [1]: 0.084 nM | Selectivity SC/CM [1]: 0.264 | Schwann cells (SC) (ErbB3) Avg EC50 [2]: 0.0222 nM

B1: :huFcSEFL2(desK)vl31(+):G4SG4:huNRG1(S177-Q237)(NRGE1C) (Fc fusion)
chain: DKTHTCPPCPAPELLGGPSVFLFPPKPKDTLMISRTPEVTCVVVDVSHEDPEVKFNWYVDGVEVHNAKTKPCEEQYGSTYRCVSVLTVLHQDWLNGKEYKCKVSNKALPAPIEKTISKAKGQPREPQVYTLPPSREKMTKNQVSLTCLVKGFYPSDIAVEWESNGQPENNYKTTPPVLKSDGSFFLYSKLTVDKSRWQQGNVFSCSVMHEALHNHYTQKSLSLSPGGGGGSGGGGSHLVKCGEKHKSFCVNGGECFMIEGPSNPSRYLCKCPNEFTGDRCQEDFMASFYKAEELYQDKTHTCPPCPAPELLGGPSVFLFPPKPKDTLMISRTPEVTCVVVDVSHEDPEVKFNWYVDGVEVHNAKTKPCEEQYGSTYRCVSVLTVLHQDWLNGKEYKCKVSNKALPAPIEKTISKAKGQPREPQVYTLPPSREEMTENQVSLTCLVEGFYPSDIAVEWESNGQPENNYETTPPVLDSDGSFFLYSDLTVDKSRWQQGNVFSCSVMHEALHNHYTQKSLSLSPGK
CM % Agonism AVG [1]: 85.4% | Cardiomyocyte (CM) (ErbB4) Avg EC50 [1]: 0.3 nM | Selectivity SC/CM [1]: > 10000

B2: :huFcSEFL2(desK)vl31(+):G4SG4:huNRG1(S177-Q237)(NRGE1D) (Fc fusion)
chain: B1 chain with K244S, F256Y, I258V, P261S, N263I
CM % Agonism AVG [1]: 88.7% | Cardiomyocyte (CM) (ErbB4) Avg EC50 [1]: 0.23 nM | Selectivity SC/CM [1]: > 10000

B4: :huFcSEFL2(desK)vl31(+):G4SG4:huNRG1(S177-F229)(NRGE1C) (Fc fusion)
chain: DKTHTCPPCPAPELLGGPSVFLFPPKPKDTLMISRTPEVTCVVVDVSHEDPEVKFNWYVDGVEVHNAKTKPCEEQYGSTYRCVSVLTVLHQDWLNGKEYKCKVSNKALPAPIEKTISKAKGQPREPQVYTLPPSREKMTKNQVSLTCLVKGFYPSDIAVEWESNGQPENNYKTTPPVLKSDGSFFLYSKLTVDKSRWQQGNVFSCSVMHEALHNHYTQKSLSLSPGGGGGSGGGGSHLVKCGEKHKSFCVNGGECFMIEGPSNPSRYLCKCPNEFTGDRCQEDFMASFDKTHTCPPCPAPELLGGPSVFLFPPKPKDTLMISRTPEVTCVVVDVSHEDPEVKFNWYVDGVEVHNAKTKPCEEQYGSTYRCVSVLTVLHQDWLNGKEYKCKVSNKALPAPIEKTISKAKGQPREPQVYTLPPSREEMTENQVSLTCLVEGFYPSDIAVEWESNGQPENNYETTPPVLDSDGSFFLYSDLTVDKSRWQQGNVFSCSVMHEALHNHYTQKSLSLSPGK
CM % Agonism AVG [1]: 62.7% | Cardiomyocyte (CM) (ErbB4) Avg EC50 [1]: 6.4 nM | Selectivity SC/CM [1]: > 10000

B5: :huFcSEFL2(desK)vl31(+):G4SG4:huNRG1(S177-F229)(NRGE1D) (Fc fusion)
chain: B4 chain with K244S, F256Y, I258V, P261S, N263I
CM % Agonism AVG [1]: 72.3% | Cardiomyocyte (CM) (ErbB4) Avg EC50 [1]: 4.3 nM | Selectivity SC/CM [1]: > 10000

B6: huNRG1(S177-Q237)(NRGE1A)::GG::huFcSEFL2 (Pb) (Fc fusion)
chain: B9 chain with G7A, S9N, H10D, N47E
CM % Agonism AVG [1]: 72% | Cardiomyocyte (CM) (ErbB4) Avg EC50 [1]: 1.84 nM | Selectivity SC/CM [1]: > 5500 | Schwann cells (SC) (ErbB3) Avg EC50 [2]: > 10000 nM

B7: huNRG1(S177-Q237)(NRGE1O)::GG::huFcSEFL2 (Pb) (Fc fusion)
chain: B9 chain with S9K, F21Y, I23V, P26S, N28I, N47D, D48F
CM % Agonism AVG [1]: 27% | Cardiomyocyte (CM) (ErbB4) Avg EC50 [1]: 1.04 nM | Selectivity SC/CM [1]: 526 | Schwann cells (SC) (ErbB3) Avg EC50 [2]: 546 nM

B8: huNRG1(S177-Q237)(NRGE1G)::GG::huFcSEFL2 (Pb) (Fc fusion)
chain: B9 chain with S9K, F21Y, I23V, P26S, N28I
CM % Agonism AVG [1]: 84% | Cardiomyocyte (CM) (ErbB4) Avg EC50 [1]: 0.218 nM | Selectivity SC/CM [1]: > 10000 | Schwann cells (SC) (ErbB3) Avg EC50 [2]: > 10000 nM
